Reference: patent US20210369776A1 (published 2021)

T1: EBV LMP2 (latent membrane protein 2) peptide on HLA-A*02:01 (human)
T1 peptide: LLWTLVVLL

B1: L201 TCR (TCR, V domains shown)
Valpha: DQQVKQNSPSLSVQEGRISILNCDYTNSMFDYFLWYKKYPAEGPTFLISISSIKDKNEDGRFTVFLNKSAKHLSLHIVPSQPGDSAVYFCAAPPPSGNQFYFGTGTSLTVIP
Vbeta: DVKVTQSSRYLVKRTGEKVFLECVQDMDHENMFWYRQDPGLGLRLIYFSYDVKMKEKGDIPEGYSVSREKKERFSLILESASTNQTSMYLCASSTRLAGAQRDTQYFGPGTRLTVL
B2: L202 TCR (TCR, V domains shown)
Valpha: EDVEQSLFLSVREGDSSVINCTYTDSSSTYLYWYKQEPGAGLQLLTYIFSNMDMKQDQRLTVLLNKKDKHLSLRIADTQTGDSAIYFCAESIPSGYNKLIFGAGTRLAVHP
Vbeta: GVAQSPRYKIIEKRQSVAFWCNPISGHATLYWYQQILGQGPKLLIQFQNNGVVDDSQLPKDRFSAERLKGVDSTLKIQPAKLEDSAVYLCASSLGLAGEDTQYFGPGTRLTVL
B3: L203 TCR (TCR, V domains shown)
Valpha: DQQVKQNSPSLSVQEGRISILNCDYTNSMFDYFLWYKKYPAEGPTFLISISSIKDKNEDGRFTVFLNKSAKHLSLHIVPSQPGDSAVYFCAAKLPQAAGNKLTFGGGTRVLVKP
Vbeta: MVIQNPRYQVTQFGKPVTLSCSQTLNHNVMYWYQQKSSQAPKLLFHYYDKDFNNEADTPDNFQSRRPNTSFCFLDIRSPGLGDAAMYLCATSSSIAGDTRNNEQFFGPGTRLTVL

How the values were obtained:
[1] = target: T1, EBV LMP2 (latent membrane protein 2) …; assay: killing
[2] = target: T1, EBV LMP2 (latent membrane protein 2) …; assay: cytokine release

| Binder | binding result [1] | binding result [2] |
| --- | --- | --- |
| B1 | recognises |  |
| B2 | recognises |  |
| B3 |  | recognises |
